Laboratory results from the RNAGym collection of RNA variant scans (doi:10.1073/pnas.2313332121).

B1: TPR t1 (parent)
chain: GACCAAUCUGCCCUCAGAGCUCGAGAACAUCUUCGGAUGCAGAGGAGGCAGGCUUCGGUGGCGCGAUAGCGCCAACGUCCUCAACCUCCAAUGCAUCCCACCACAUGAUGAUGCCUGAAGAGCCUUGGUUUUUUG

Variants of: B1
Experiment: polymerase ribozyme fitness, log enrichment relative to wild type (log ratio); higher = more active; in vitro selection for triplet polymerase activity
In short: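 Mutant libraries for each subunit of a heterodimeric triplet polymerase ribozyme were made by PCR and then transcribed. Each library underwent one round of in vitro selection in triplicate: annealing with a biotinylated primer, the partner subunit and triplets, frozen incubation at −7 °C, gel excision of extended constructs, streptavidin-bead capture and RT-PCR. Input and output libraries were Illumina-sequenced, and only genotypes with ≥10 input reads and ≥1 read per output were kept. Fitness is the logarithm, base 2, of genotype enrichment over wild-type enrichment, computed from inverse-variance-weighted replicate averages.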

| Variant | polymerase ribozyme fitness (log ratio) |
| --- | --- |
| G77U A105G | -2.9 |
| C73A G122A | -0.64 |
| G77C A95U | -0.809 |
| A74G U96G | -0.295 |
| U78C C115U | 0.0691 |
| A74G C114G | -2.02 |
| C72G A83G | -0.0856 |
| C76A C99U G120U | -5.6 |
| A75G U106G C124A | 0.661 |
| C72G C98U A105C | -4.92 |
| G77U U106C C124A | -3.43 |
| A75C G77C | -1.58 |
| C72U G77U C104A | -2.21 |
| U78C C99A U106C | -4.95 |
| C73U C86A C97U C102U | -4.11 |
| U78C U81G G120C | -1.18 |
| G77C G93A | -0.532 |
| C76G G93A C124G | 1.31 |
| C73U G93C C124U U125C | -1.39 |
| U78C A83U | -0.61 |
| A74C G110C | -4.36 |

| Variant | polymerase ribozyme fitness (log ratio) |
| --- | --- |
| A74C G110A | -1.2 |
| C73U U81A U116G U125A | -4.02 |
| A75G | 0.101 |
| A75C | -0.585 |
| A75U | -0.493 |
| C72U A118G | -0.902 |
| C72G C104A U116A | -5.17 |
| C73U C80U | -0.17 |
| U78C C85G U129C | -2.13 |
| A74U G128U U130C | -0.708 |
| C73G U81A C85U C115U | -5.48 |
| C73U A90G C124A | 1.85 |
| C73A C123U | 1.47 |
| C73G C82U | -0.556 |
| C72U G93U A111G | -2.76 |
| C72G C85A | -1.82 |
| C72G C85G | -1.98 |
| U78A A111C | -0.127 |
| C76A C89U U129A | -2.51 |
| A75G C88A C104A U112A | -1.1 |
| C72U A74C | 0.54 |

| Variant | polymerase ribozyme fitness (log ratio) |
| --- | --- |
| U78A U112A | 1.06 |
| C73U A91C | -1.74 |
| C72U A90C | -1.33 |
| C73A C102U U125G | -2.45 |
| A74G C98G | -6.09 |
| U78G C123U | 0.876 |
| U78C C124G | 1.08 |
| G77A A83C C86U U116A G120C U125A | -1.96 |
| C73U A103G | -4.17 |
| C73U G117U | -1.43 |
| C73U G117C | -2.95 |
| C76U C123A | 0.138 |
| A74U U130G | -0.154 |
| C73G C97G C114A A121G | -5.74 |
| C72G C123A | -0.175 |
| U78C U81C | -0.434 |
| U78C U81G | -3.03 |
| C79A A83U | -3.6 |
| C76G C82U | -0.815 |
| C76A C115U | -2.9 |
| G77U U125A | -1.21 |

| Variant | polymerase ribozyme fitness (log ratio) |
| --- | --- |
| C76A A95U C115U | -4.9 |
| C72G C79G | -1.67 |
| C72U A105U | -2.43 |
| C73U C76A A103U G120C | -5.45 |
| C76G C85A U132C | -0.689 |
| C72U G117C U125G | -5.63 |
| G77U U92G | -2.77 |
| C73U C115A | -0.495 |
| C72G A95U | -1.07 |
| C72U C123G | 0.829 |
| C72U G122U | 0.145 |
| C73U C82U A91U A100U | -3.21 |
| A74U G93A C123A | -0.279 |
| G77A U78C A105C A121C | -1.42 |
| U78A C124U U125A U133C | 1.84 |
| C73A G93C | -0.962 |
| G77A U112G | 0.316 |
| G77A U112A | 0.751 |
| C72U C89G G113C | -3.26 |
| C76U C88U | -0.561 |
| A74U A95U | -0.222 |
